Test results reported in IntAct's records for PubMed 25281266.

B1: Peregrin (Homo sapiens), P55201 (parent)
chain: MGVDFDVKTFCHNLRATKPPYECPVETCRKVYKSYSGIEYHLYHYDHDNPPPPQQTPLRKHKKKGRQSRPANKQSPSPSEVSQSPGREVMSYAQAQRMVEVDLHGRVHRISIFDNLDVVSEDEEAPEEAPENGSNKENTETPAATPKSGKHKNKEKRKDSNHHHHHNVSASTTPKLPEVVYRELEQDTPDAPPRPTSYYRYIEKSAEELDEEVEYDMDEEDYIWLDIMNERRKTEGVSPIPQEIFEYLMDRLEKESYFESHNKGDPNALVDEDAVCCICNDGECQNSNVILFCDMCNLAVHQECYGVPYIPEGQWLCRRCLQSPSRAVDCALCPNKGGAFKQTDDGRWAHVVCALWIPEVCFANTVFLEPIDSIEHIPPARWKLTCYICKQRGSGACIQCHKANCYTAFHVTCAQQAGLYMKMEPVRETGANGTSFSVRKTAYCDIHTPPGSARRLPALSHSEGEEDEDEEEDEGKGWSSEKVKKAKAKSRIKMKKARKILAEKRAAAPVVSVPCIPPHRLSKITNRLTIQRKSQFMQRLHSYWTLKRQSRNGVPLLRRLQTHLQSQRNCDQVGRDSEDKNWALKEQLKSWQRLRHDLERARLLVELIRKREKLKRETIKVQQIAMEMQLTPFLILLRKTLEQLQEKDTGNIFSEPVPLSEVPDYLDHIKKPMDFFTMKQNLEAYRYLNFDDFEEDFNLIVSNCLKYNAKDTIFYRAAVRLREQGGAVLRQARRQAEKMGIDFETGMHIPHSLAGDEATHHTEDAAEEERLVLLENQKHLPVEEQLKLLLERLDEVNASKQSVGRSRRAKMIKKEMTALRRKLAHQRETGRDGPERHGPSSRGSLTPHPAACDKDGQTDSAAEESSSQETSKGLGPNMSSTPAHEVGRRTSVLFSKKNPKTAGPPKRPGRPPKNRESQMTPSHGGSPVGPPQLPIMSSLRQRKRGRSPRPSSSSDSDSDKSTEDPPMDLPANGFSGGNQPVKKSFLVYRNDCSLPRSSSDSESSSSSSSSAASDRTSTTPSKQGRGKPSFSRGTFPEDSSEDTSGTENEAYSVGTGRGVGHSMVRKSLGRGAGWLSEDEDSPLDALDLVWAKCRGYPSYPALIIDPKMPREGMFHHGVPIPVPPLEVLKLGEQMTQEAREHLYLVLFFDNKRTWQWLPRTKLVPLGVNQDLDKEKMLEGRKSNIRKSVQIAYHRALQHRSKVQGEQSSETSDSD

Variants of: B1
Settings: with h2a1_human H2AC11, P0C0S8

| Variant | effect of a mutation on the interaction |
| --- | --- |
| A709S | decreasing interaction |

Variants of: B1
Settings: with h4_human H4C16, P62805

| Variant | effect of a mutation on the interaction |
| --- | --- |
| A709S | decreasing interaction |

Variants of: B1
Settings: with h2a1_human H2AC11, P0C0S8
Remark: another data set of the same source

| Variant | effect of a mutation on the interaction |
| --- | --- |
| E661A | decreasing interaction |

Variants of: B1
Settings: with h4_human H4C16, P62805
Remark: another data set of the same source

| Variant | effect of a mutation on the interaction |
| --- | --- |
| E661A | decreasing interaction |

Variants of: B1
Settings: with h2a1_human H2AC11, P0C0S8
Remark: another data set of the same source

| Variant | effect of a mutation on the interaction |
| --- | --- |
| I713A | decreasing interaction |

Variants of: B1
Settings: with h4_human H4C16, P62805
Remark: another data set of the same source

| Variant | effect of a mutation on the interaction |
| --- | --- |
| I713A | decreasing interaction |

Variants of: B1
Settings: with h2a1_human H2AC11, P0C0S8
Remark: another data set of the same source

| Variant | effect of a mutation on the interaction |
| --- | --- |
| C704A | decreasing interaction |

Variants of: B1
Settings: with h4_human H4C16, P62805
Remark: another data set of the same source

| Variant | effect of a mutation on the interaction |
| --- | --- |
| C704A | decreasing interaction |

Variants of: B1
Settings: with h2a1_human H2AC11, P0C0S8
Remark: another data set of the same source

| Variant | effect of a mutation on the interaction |
| --- | --- |
| F714A | disrupting interaction |

Variants of: B1
Settings: with h4_human H4C16, P62805
Remark: another data set of the same source

| Variant | effect of a mutation on the interaction |
| --- | --- |
| F714A | disrupting interaction |

Variants of: B1
Settings: with h2a1_human H2AC11, P0C0S8
Remark: another data set of the same source

| Variant | effect of a mutation on the interaction |
| --- | --- |
| N708A | disrupting interaction |

Variants of: B1
Settings: with h4_human H4C16, P62805
Remark: another data set of the same source

| Variant | effect of a mutation on the interaction |
| --- | --- |
| N708A | disrupting interaction |
